Patent EP4793288A1

B1: T22A4 (Fab clone displayed on phage) (Fab, V domains shown)
VH: EVQLVESGGNWVQPGGSLRLSCAASGFSFRSYAMSWVRQAPGKGLEWVSSISGSGNSELYAGSVKGRFTISRDNSKNTLSLQLHSLRAEDTAMYYCAKFSAAVGFLPDYFDSWGQGTLVTVSS
VL: ELTLTQSPSSLSASVGDRVTITCQASHDISKYLNWYQQKSGKAPKLLIYDASNLETGVPSRFSGSGSGTDFTLTISSLQPEDFATYYCQQSYRTPLTFGGGTKLEIK
B2: T23D5 (Fab clone displayed on phage) (Fab, V domains shown)
VH: QVQLQESGPGLVKPSETLSLTCTVSGGSIDRSSHYWGWIRQPPGKGLEWLGSIYYSGITYYNPSLKSRVTISVDTSRNQFSLTLSSVTAADTAVYYCARHGSYDSWAGRYKWDRFDPWGQGTPVTVSS
VL: ELQMTQSPSSLSASVGDRVTITCQASHDISKYLNWYQQKSGKAPKLLIYDASNLETGVPSRFSGSGSGTDFTLTISSLQPEDFATYYCQQSYSTPLTFGGGTKVEIK

Target: Recombinant HLA-G antigen (human) (UniProt P17693)
Test: monoclonal phage ELISA, Fab on phage, anti-M13 HRP (selection threshold)

Binder	absorbance (OD450)
B1	> 0.4
B2	> 0.4
